Results: patent US20150329642A1 (Genmab, published 2015)

B1: anti-c-Met HuMab 005 (IgG1) (antibody, V domains shown)
VH: QVQLVQSGAEVKKPGSSVKVSCKASGGTFSSYGFGWVRQAPGQGLEWMGRISPILGIANYAQMFQGRVTITADKSTSTAYMELSSLRSEDTAVYYCARDVGYDWPDTFDIWGQGTMVIVSS
VL: DIQMTQSPSSLSASVGDRVTITCRASQGISSWLAWYQQKPEKAPKSLIYAASSLQSGVPSRFSGGGSGTDFTLTISSLQPEDFATYYCQQYNSFPPTFGQGTKVEIK
notes: also called TH1016-005; PC1016-005
B2: anti-c-Met HuMab 006 (IgG1) (antibody, V domains shown)
VH: QVQLVQSGAEVKKPGSSVKVSCKASGGTFSSFGIGWVRQAPGQGLEWMGRIFPILGTANYAQMFQGRVTITADKSTSTAYMELTSLRSEDTAVYYCARDVGYDSADAFDIWGQGTMVTVSS
VL: DIQMTQSPSSLSASVGDRVTITCRASQGISSWLAWYQQKPEKAPKSLIYAASSLQSGVPSRFSGSGSGTDFTLTISSLQPEDFATYYCQQYNSYPPTFGQGTKVEIK
notes: also called TH1016-006; PC1016-006
B3: anti-c-Met HuMab 008 (IgG1) (antibody, V domains shown)
VH: EVQLVQSGAEVKKPGESLKISCKGSGYSFTSYWIGWVRQMPGKGLEWMGIIYPGDSETRYSPSFQGQVTISADKSISTAYLQWSSLKASDTAMYYCARQEITGEFDYWGQGTLVTVSS
VL: AIQLTQSPSSLSASVGDRVTITCRASQGISSALAWYQQKPGKAPKLLIYDASSLESGVPSRFSGSGSGTDFTLTISSLQPEDFATYYCQQFNSYPRTFGQGTKVEIK
notes: also called TH1016-008; PC1016-008
B4: IgG1-1016-022 (antibody, V domains shown)
VH: QVQLVESGGGVVQPGRSLRLSCAASGFTFSSYAMHWVRQAPGKGLEWVAVISYDGSNKYYADSVKGRFTISRDNSKNTLYLQMNSLRAEDTAVYYCARELLWFGELWGYFDLWGRGTLVTVSS
VL: DIQMTQSPSSVSASVGDRVTITCRASQGISSWLAWYQHKPGKAPKLLIYAASSLQSGVPSRFSGSGSGTDFTLTISSLQPEDFATYYCQEASSFTWTFGQGTKVEIK
notes: also called TH1016-022; PC1016-022
B5: IgG1-024 (antibody, V domains shown)
VH: EVQLLESGGGLVQPGGSLRLSCVASGFTFSSYAMSWVRQAPGKGLEWVSAISGSSGGSTYYVDSVKGRFTISRANSKNTLYLQMNSLRAEDTAVYYCAKDLDRGWMGYFGYWGQGTLVTVSS
VL: DIQMTQSPSSVSASVGDRVTITCRASQGISSWLAWYQHKPGKAPKLLIYAASSLQSGVPSRFSGSGSGTDFTLTISSLQPEDFATYYCQQANSFPTFGQGTRLEIK
notes: also called TH1016-024; PC1016-024
B6: anti-c-Met HuMab 035 (IgG1) (antibody, V domains shown)
VH: EVQLVQSGAEVKKPGESLKISCKGSGYSFTSYWIGWVRQMPGKGLEWMGIIYPGDSDTRYSPSFQGQVTISADKSISTAYLQWNSLKASDTAMYYCARQEITGEFDYWGQGTLVTVSS
VL: AIQLTQSPSSLSASVGDRVTITCRASQGISSALAWYQQKPGKAPKLLIYDASSLESGVPSRFSGSGSGTDFTLTISSLQPEDFATYYCQQFNSYPMYTFGQGTKLEIK
notes: also called P1016-035; TH1016-035-D09
B7: anti-c-Met HuMab 045 (IgG1) (antibody, V domains shown)
VH: EVQLLESGGGLVQPGGSLRLSCAASGFTFSSYAMSWVRQAPGKGLEWVSVISGSGGITYYADSVKGRFTISRDNSKNTLYLQMNSLRAEDTAVYYCARDRGWGSDYWGQGTLVTVSS
VL: EIVLTQSPATLSLSPGERATLSCRASQSVSSYLAWYQQKPGQAPRLLIYDASNRATGIPARFSGSGSGTDFTLTISSLEPEDFAVYYCQQRSNWPFTFGPGTKVDIK
notes: also called TH1016-045; PC1016-045
B8: IgG1-1016-069 (antibody, V domains shown)
VH: QVQLVQSGAEVKKPGASVKVSCETSGYTFTSYGISWVRQAPGHGLEWMGWISAYNGYTNYAQKLQGRVTMTTDTSTSTAYMELRSLRSDDTAVYYCARDLRGTNYFDYWGQGTLVTVSS
VL: DIQMTQSPSSVSASVGDRVTITCRASQGISNWLAWFQHKPGKAPKLLIYAASSLLSGVPSRFSGSGSGTDFTLTISSLQPEDFATYYCQQANSFPITFGQGTRLEIK
notes: also called clone 069; TH1016-069
B9: IgG1-1016-058 (antibody, V domains shown)
VH: EVQLVESGGGLVKPGGSLKLSCAASGFTFSDYYMYWVRQTPEKRLEWVATISDDGSYTYYPDSVKGRFTISRDNAKNNLYLQMSSLKSEDTAMYYCAREGLYYYGSGSYYNQDYWGQGTLVTVSS
VL: AIQLTQSPSSLSASVGDRVTITCRASQGLSSALAWYRQKPGKAPKLLIYDASSLESGVPSRFSGSGSGTDFTLTISSLQPEDFATYYCQQFTSYPQITFGQGTRLEIK
notes: also called IgG1-058; TH1016-058

Experiments:
[1] = target: T1, human c-Met, membrane-bound on cells (human, UniProt P08581 25-1390); test: flow cytometry on A431 cells (PE goat anti-human IgG); second panel
T1 construct: whole, on cells; A431 cells carry on average 30,000 copies of c-Met per cell (Qifi); also called c-Met expressed on A431 cells; c-Met on A549 cells
Protocol: (§1) The binding of anti-c-Met antibodies and monovalent forms thereof (also termed “UniBody molecules” herein, see Example 5) to A431 cells expressing membrane-bound c-Met (purchased at ATCC, CRL-1555) was tested using flow cytometry (FACS Canto II, BD Biosciences). […] Binding of anti-c-Met antibodies and UniBody molecules was detected using a Phycoerythrin-conjugated goat-anti-human IgG antibody (Jackson). IgG1-5D5 was used as positive control antibody, and HuMab-KLH was used as isotype control antibody. EC₅₀ values were determined by means of non-linear regression (sigmoidal dose-response with variable slope) using GraphPad Prism V4.03 software (GraphPad Software, San Diego, Calif., USA).
(§2) Also maximum binding levels were unchanged between IgG1's and UniBody molecules. For antibodies 005, 006, 008, 035, 045 and 058, on the other hand, a more than 2-fold […] as well as a decrease in maximum binding level was observed when comparing IgG1 with their UniBody counterpart. This was most likely due to the […] (Kd) of these antibodies (see Example 14).

[2] = target: T2, recombinant human c-Met extracellular domain (R&D systems) (human, UniProt P08581 25-932); test: competition ELISA, residual Europium-HGF signal at 615 nm at the lower plateau of the fit; sheet prints no competing mAb ~66000, no HGF-Europium ~600; upper panel
T2 construct: extracellular domain; Bought reagent; also called coated extracellular domain of c-Met; recombinant c-Met
Protocol: (§3) ELISA wells were coated overnight at 4° C. with 0.5 μg/mL recombinant human c-Met extracellular domain (R&D systems, Minneapolis, USA) diluted in PBS. Next, the ELISA wells were washed with PBST (PBS supplemented with 0.05% Tween-20 [Sigma-Aldrich, Zwijndrecht, The Netherlands]) and blocked for one hour at room temperature (RT) with PBST supplemented with 2% (v/v) chicken serum (Gibco, Paisley, Scotland). […] Mean fluorescence intensity at 615 nm was measured using the EnVision 2101 Multilabel reader (PerkinElmer) applying the following settings: Lance/Delfia dual mirror, emission filter 615, excitation filter 340 nm, delay time 400 μs, window 400 μs, 100 flashes, 2000 μs per cycle and bidirectional row-by-row reading. To determine IC₅₀ values, the binding curves were analyzed with non-linear regression (sigmoidal dose-response with variable slope, top-values constrained to a shared value for all data-sets) using GraphPad Prism V4.03 software (GraphPad Software, San Diego, Calif., USA).
(§4) FIG. 5 depicts representative examples of HGF binding inhibition curves of anti-c-Met antibodies for binding to the extracellular domain of recombinant human c-Met. 5D5 was used as positive control antibody. All anti-c-Met antibodies in the experiment shown were able to compete with Europium^{3±}-conjugated HGF for binding to recombinant c-Met. […] Without adding Europium³⁺-conjugated HGF, roughly ˜600 relative fluorescent units (RFU) were detected, indicating the signal when maximal inhibition is accomplished. When binding of Europium³⁺-conjugated HGF was not inhibited, approximately ˜66,000 RFU were detected.

[3] = target: T3, cMetECDHis (human, UniProt P08581 25-932, limits assumed, biotinylated in the cross-block ELISA of Example 17); test: cross-block ELISA; competitor 064
T3 construct: Expressed in HEK-293F cells; also called soluble cMetECDHis; biotinylated cMetECDHis
Protocol: First, the optimal coating concentrations of the tested anti-c-Met antibodies and the optimal cMetECDHis concentration were determined. Therefore, ELISA wells were coated overnight at 4° C. with anti-c-Met HuMabs serially diluted in PBS (8 μg/mL in 2-fold dilutions). Next, the ELISA wells were washed with PBST (PBS supplemented with 0.05% Tween-20 [Sigma-Aldrich, Zwijndrecht, The Netherlands]) and blocked for one hour at room temperature (RT) with PBSTC (PBST supplemented 2% [v/v] chicken serum [Gibco, Paisley, Scotland]). Subsequently, the ELISA wells were washed with PBST and incubated for one hour at RT with biotinylated cMetECDHis serially diluted in PBSTC (1 μg/mL in 2-fold dilutions). Unbound biotinylated cMetECDHis was washed away with PBST, and bound biotinylated cMetECDHis was incubated for one hour at RT with 0.1 μg/mL Streptavidin-poly-HRP (Sanquin, Amsterdam, The Netherlands) diluted in PBST.
ELISA wells were coated with anti-c-Met antibody at a sub-optimal dose as described above. After blocking of the ELISA wells, they were incubated with the predetermined concentration of biotinylated cMetECDHis in the presence of an excess of anti-c-Met antibody. The reaction was developed as described above. Residual binding was expressed as a percentage relative to the binding observed in the absence of competitor antibody.

[4] = target: T4, cMetSEMA-567His8 (human, UniProt P08581 25-567, limits assumed); test: TR-FRET; displacement of AlexaFluor-647-HGF from cMetSEMA-567His8
T4 construct: In the TR-FRET assay detected by anti-6xhis Europium3+; also called cMetSEMAHis; SEMA domain of c-Met; not shown: C-terminal His tag; the text says His9, the construct name says His8
Protocol: Therefore, the interaction of anti-c-Met antibodies with the SEMA domain of the c-Met receptor was studied using TR-FRET technology. […] The mean fluorescent intensity at 665 nm was measured on the EnVision 2101 Multilabel reader (PerkinElmer).
A 4-fold serial dilution of unlabeled anti-c-Met antibody ranging from 0.49-8000 ng/mL was tested. After overnight incubation at 4° C. in the dark, mean fluorescence intensity at 665 nm was measured using the EnVision 2101 Multilabel reader applying the following settings: Lance/Delfia dual mirror, emission filter 615-665 nm, excitation filter 320 nm, delay time 60 μs, window 100 μs, 100 flashes, 2000 μs per cycle and bidirectional row-by-row reading. To determine IC₅₀ values, the binding curves were analyzed with non-linear regression (sigmoidal dose-response with variable slope) using GraphPad Prism V4.03 software (GraphPad Software, San Diego, Calif., USA).

[5] = target: T2, recombinant human c-Met extracellular …; test: competition ELISA on coated recombinant c-Met extracellular domain; blocked ligand Europium-conjugated HGF; column headed EC50 on the sheet, called IC50 in paragraph 270; upper panel
Protocol: as §3, §4

[6] = target: T1, human c-Met, membrane-bound on cells; test: flow cytometry on A431 cells (PE goat anti-human IgG); bottom panel
Protocol: as §1, §2

Row | EC50 [1] [nM] | Bottom [2] [RFU] | residual binding, % of no competitor [3] [%] | % inhibition [4] [%] | IC50 [4] [µg/mL] | IC50 [5] [µg/mL] | EC50 [6] [nM] | Binder
1 | 1.56 | 6940 | 118 | 92 | 0.16 | 0.0362 |  | B1
2 | 1.92 | 5630 | 122 | 92 | 0.16 | 0.0799 |  | B2
3 | 0.554 | 30100 | 107 |  |  | 0.00788 |  | B3
4 | 1.1 | 18200 | 102 | 77 | 0.37 | 0.00927 |  | B4
5 |  | 13100 | 2.3 | 95 | 0.39 | 0.0168 |  | B5
6 |  | 23300 | 132 |  |  | 0.0348 |  | B6
7 |  | 12600 | 104 | 92 | 0.17 | 0.0165 |  | B7
8 |  |  | 2.3 | 97 | 0.54 |  | 0.547 | B8
9 |  | 5200 | 109 | 99 | 0.15 | 0.00727 |  | B9
